Test results from publication doi:10.1101/2024.12.18.629111 (bioRxiv, 2024).
Changes are numbered by the printed parent chain.

B1: Upf2(933-1089)-His (domain or fragment, S. cerevisiae, UniProt P38798 933-1089, looked up)
chain: SDSDLEYGGDLDADRDIEMKRMYEEYERKLKDEEERKAEEELERQFQKMMQESIDARKSEKVVASKIPVISKPVSVQKPLLLKKSEEPSSSKETYEELSKPKKIAFTFLTKSGKKTQSRILQLPTDVKFVSDVLEEEEKLKTERNKIKKIVLKRSFD
B2: CBP-Upf1-CH-His (domain or fragment)
chain: SPSASDNSCAYCGIDSAKCVIKCNSCKKWFCNTKNGTSSSHIVNHLVLSHHNVVSLHPDSDLGDTVLECYNCGRKNVFLLGFVSAKSEAVVVLLCRIPCAQTKNANWDTDQWQPLIEDRQLLSWVAEQPTEEEKLKARLITPSQISKLEAKWRSNKDATINDIDAPE
B3: His-tagged Nmd4 (natural protein, S. cerevisiae, UniProt Q12129 1-218, looked up)
chain: MTQYNFIIDASAFEKGLGNIKRWCSDCTEAVTLNFYIPTFTLNELDFLQQRRKSFAARESLKFIDRLDDSKFANLKVFIEFPEVLDIILWSDVMEHNDSSGKINIAKLPKRLKNLLKSCIYKCYLEGNEGLHWFLISEDPQIREMAMQCNIPSCSIVDVDSILSKDMNDKSFRESEKFNNMMLKNGTKEESENGREIIRTNFNKTVYASRGTGELWSP

Columns and labels:
[1] = target: T1, CBP-Upf1-CH-HD I693R (S. cerevisiae, UniProt P30771 54-851, I693R); test: pull-down
T1 sequence (looked up): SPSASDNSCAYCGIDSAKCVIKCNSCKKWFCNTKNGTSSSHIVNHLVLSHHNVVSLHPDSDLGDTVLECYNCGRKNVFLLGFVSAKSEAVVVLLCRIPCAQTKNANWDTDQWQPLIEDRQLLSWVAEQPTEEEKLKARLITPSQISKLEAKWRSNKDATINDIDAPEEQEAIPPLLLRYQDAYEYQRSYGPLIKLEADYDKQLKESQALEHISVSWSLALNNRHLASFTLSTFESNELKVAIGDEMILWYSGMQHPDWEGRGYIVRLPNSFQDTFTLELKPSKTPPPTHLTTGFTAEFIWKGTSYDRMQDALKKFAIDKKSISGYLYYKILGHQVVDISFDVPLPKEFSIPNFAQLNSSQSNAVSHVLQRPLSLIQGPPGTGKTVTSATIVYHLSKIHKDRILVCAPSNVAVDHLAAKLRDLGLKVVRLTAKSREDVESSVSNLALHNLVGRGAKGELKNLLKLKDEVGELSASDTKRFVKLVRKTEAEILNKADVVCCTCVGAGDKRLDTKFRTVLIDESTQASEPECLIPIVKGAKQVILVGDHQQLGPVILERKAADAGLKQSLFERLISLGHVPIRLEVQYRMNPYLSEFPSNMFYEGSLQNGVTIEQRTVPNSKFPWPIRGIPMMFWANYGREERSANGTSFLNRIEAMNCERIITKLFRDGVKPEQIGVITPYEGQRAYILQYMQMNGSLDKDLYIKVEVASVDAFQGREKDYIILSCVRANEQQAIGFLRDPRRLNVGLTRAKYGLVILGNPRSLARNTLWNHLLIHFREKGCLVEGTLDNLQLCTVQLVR

[2] = target: the molecule itself; test: SDS-PAGE band of the dimer
[3] = target: B1; test: fluorescence polarisation
[4] = target: T2, FITC-labeled Dcp2-UBD1 peptide (aa 456-479) (S. cerevisiae, UniProt P53550 456-479, FITC on the N-terminus); test: fluorescence polarisation
T2 peptide (looked up): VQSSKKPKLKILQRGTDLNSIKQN

[5] = target: T3, FITC-labeled Dcp2-UBD2 peptide (aa 694-718) (S. cerevisiae, UniProt P53550 694-718, FITC on the N-terminus); test: fluorescence polarisation
T3 peptide (looked up): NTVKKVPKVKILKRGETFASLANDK

[6] = target: T4, CBP-Upf1-FL (S. cerevisiae, UniProt P30771 1-971); test: pull-down
T4 sequence (looked up): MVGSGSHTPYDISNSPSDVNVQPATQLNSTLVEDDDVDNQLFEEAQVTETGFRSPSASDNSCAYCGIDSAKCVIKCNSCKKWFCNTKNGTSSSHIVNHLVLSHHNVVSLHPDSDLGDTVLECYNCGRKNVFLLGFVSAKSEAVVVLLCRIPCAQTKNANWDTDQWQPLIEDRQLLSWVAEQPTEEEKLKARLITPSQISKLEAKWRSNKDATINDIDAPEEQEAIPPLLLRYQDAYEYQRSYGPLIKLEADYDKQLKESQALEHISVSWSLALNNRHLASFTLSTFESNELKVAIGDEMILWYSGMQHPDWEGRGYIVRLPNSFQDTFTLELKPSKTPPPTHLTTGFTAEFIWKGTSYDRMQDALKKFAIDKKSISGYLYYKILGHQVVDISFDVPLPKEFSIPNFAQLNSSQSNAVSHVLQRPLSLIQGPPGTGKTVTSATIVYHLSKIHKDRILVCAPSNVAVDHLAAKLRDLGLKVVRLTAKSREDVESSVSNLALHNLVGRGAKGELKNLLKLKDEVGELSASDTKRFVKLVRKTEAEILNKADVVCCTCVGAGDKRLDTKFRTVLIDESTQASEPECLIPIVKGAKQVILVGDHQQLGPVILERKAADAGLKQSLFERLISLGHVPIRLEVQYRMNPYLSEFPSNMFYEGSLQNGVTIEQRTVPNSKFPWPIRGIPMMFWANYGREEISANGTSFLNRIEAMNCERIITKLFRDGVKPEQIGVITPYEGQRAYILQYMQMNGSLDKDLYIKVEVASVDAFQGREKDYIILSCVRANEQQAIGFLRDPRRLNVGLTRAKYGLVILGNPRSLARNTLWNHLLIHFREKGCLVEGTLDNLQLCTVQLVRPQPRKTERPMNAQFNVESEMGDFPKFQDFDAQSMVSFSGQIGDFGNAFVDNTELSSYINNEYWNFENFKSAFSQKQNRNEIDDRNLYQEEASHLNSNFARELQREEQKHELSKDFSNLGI

[7] = target: T5, CBP-Upf1-CH-HD (S. cerevisiae, UniProt P30771 54-851); test: native gel or EMSA
T5 sequence (looked up): T1 sequence (looked up) with R640I

B1: binds [1].

B2 was tested, and the “stoichiometry N” value [2] was 2, the Kd [3] was 430 nM and the Kd [4] was 60.1 µM. The Kd [5] was 25.1 µM.

B3: binds [6]; binds [7].
